The source of these data is PMC9720954, “Blood–brain barrier penetrating neprilysin degrades monomeric amyloid-beta in a mouse model of Alzheimer’s disease” (Alzheimer's Research & Therapy, 2022).

The target of one experiment is T1, Aβ1-40 monomers (Homo sapiens (synthetic peptide; …, UniProt P05067).
T1 construct: amyloid-beta 1-40, cut product of the amyloid precursor protein (APP); numbers count on: the Aβ peptide; Used as monomers, held on the plate by a rabbit polyclonal antibody against the C-terminus of Aβ; also called Aβ40; wt-Aβ1-40; source: bought: Innovagen
T1 sequence (P05067 672-711): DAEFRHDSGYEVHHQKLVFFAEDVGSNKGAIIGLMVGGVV
Kind of experiment: ELISA; sandwich ELISA; 1 nM Aβ1-40 monomers or 1 nM Aβ1-42 aggregates held by coated rabbit polyclonal antibodies (C-terminal of Aβ, or Aβ1-42); serial dilutions of the recombinant proteins in 0.1% BSA, 0.05% Tween-20 in PBS, 2 h at RT; goat anti-mouse HRP. The note with it: both partners purified. On the technique in general: An ELISA detects its analyte on a solid surface through an enzyme-linked reagent.

The next experiment deals with T2, Aβ1-42 aggregates (Homo sapiens (synthetic peptide; …, UniProt P05067).
T2 construct: amyloid-beta 1-42, cut product of the amyloid precursor protein (APP); numbers count on: the Aβ peptide; Soluble aggregates; also called Aβ42; Aβ1-42 soluble aggregates; source: aggregates prepared as previously described [50]
T2 sequence (P05067 672-713): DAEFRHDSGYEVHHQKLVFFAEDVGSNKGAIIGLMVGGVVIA
The description is as above. The note with it: both partners purified.

B1: scFc-scFv8D3 (scFv, V domains shown)
VH: EVQLVESGGGLVQPGNSLTLSCVASGFTFSNYGMHWIRQAPKKGLEWIAMIYYDSSKMNYADTVKGRFTISRDNSKNTLYLEMNSLRSEDTAMYYCAVPTSHYVVDVWGQGVSVTVSS
VL: DIQMTQSPASLSASLEEIVTITCQASQDIGNWLAWYQQKPGKSPQLLIYGATSLADGVPSRFSGSRSGTQFSLKISRVQVEDIGIYYCLQAYNTPWTFGGGTKLELK
notes: first variable domain of scFv8D3, as in m1; (G4S)3 linker between the two parts of scFv8D3, written out from the printed formula; second variable domain of scFv8D3, as in m1; in-house linker between scFv8D3 and scFc; Lacks NEP; the control of the study; the signal peptide is cleaved on expression; Mw 81 kDa; also called scFv8D3-scFc; source: Expi293 cells, transfected (pcDNA3.4), purified …
Regarding B1, the binding result with Aβ1-40 monomers and with Aβ1-42 aggregates was “no binding” throughout.
